Results as given in patent US20090099029A1, “Methods and substrates for conducting assays” (Invitrogen Corporation, priority 2005, published 2009).

B1: ROCK2 (protein)
chain: MSRPPPTGKMPGAPETAPGDGAGASRQRKLEALIRDPRSPINVESLLDGLNSLVLDLDFPALRKNKNIDNFLNRYEKIVKKIRGLQMKAEDYDVVKVIGRGAFGEVQLVRHKASQKVYAMKLLSKFEMIKRSDSAFFWEERDIMAFANSPWVVQLFYAFQDDRYLYMVMEYMPGGDLVNLMSNYDVPEKWAKFYTAEVVLALDAIHSMGLIHRDVKPDNMLLDKHGHLKLADFGTCMKMDETGMVHCDTAVGTPDYISPEVLKSQGGDGFYGRECDWWSVGVFLYEMLVGDTPFYADSLVGTYSKIMDHKNSLCFPEDAEISKHAKNLICAFLTDREVRLGRNGVEEIRQHPFFKNDQWHWDNIRETAAPVVPELSSDIDSSNFDDIEDDKGDVETFPIPKAFVGNQLPFIGFTYYRENLLLSDSPSCRETDSIQSRKNEESQEIQKKLYTLEEHLSNEMQAKEELEQKCKSVNTRLEKTAKELEEEITLRKSVESALRQLEREKALLQHKNAEYQRKADHEADKKRNLENDVNSLKDQLEDLKKRNQNSQI
modifications: left off: a dimerising Fc or GST
B2: RPS6KA4(MSK2) (protein)
chain: MGDEDDDESCAVELRITEANLTGHEEKVSVENFELLKVLGTGAYGKVFLVRKAGGHDAGKLYAMKVLRKAALVQRAKTQEHTRTERSVLELVRQAPFLVTLHYAFQTDAKLHLILDYVSGGEMFTHLYQRQYFKEAEVRVYGGEIVLALEHLHKLGIIYRDLKLENVLLDSEGHIVLTDFGLSKEFLTEEKERTFSFCGTIEYMAPEIIRSKTGHGKAVDWWSLGILLFELLTGASPFTLEGERNTQAEVSRRILKCSPPFPPRIGPVAQDLLQRLLCKDPKKRLGAGPQGAQEVRNHPFFQGLDWVALAARKIPAPFRPQIRSELDVGNFAEEFTRLEPVYSPPGSPPPGDPRIFQGYSFVAPSILFDHNNAVMTDGLEAPGAGDRPGRAAVARSAMMQDSPFFQQYELDLREPALGQGSFSVCRRCRQRQSGQEFAVKILSRRLEANTQREVAALRLCQSHPNVVNLHEVHHDQLHTYLVLELLRGGELLEHIRKKRHFSESEASQILRSLVSAVSFMHEEAGVVHRDLKPENILYADDTPGAPVKIIDFGFARLRPQSPGVPMQTPCFTLQYAAPELLAQQGYDESCDLWSLGVILYMMLSGQVPFQGASGQGGQSQAAEIMCKIREGRFSLDGEAWQGVSEEAKELVRGLLTVDPAKRLKLEGLRGSSWLQDGSARSSPPLRTPDVLESSGPAVRSGLNATFMAFNRGKREGFFLKSVENAPLAKRRKQKLRSATASRRGSPAPANPGRAPVASKGAPRRANGPLPPS
modifications: left off: a dimerising Fc or GST
B3: EPHB3 (protein)
chain: CLRKQRHGSDSEYTEKLQQYIAPGMKVYIDPFTYEDPNEAVREFAKEIDVSCVKIEEVIGAGEFGEVCRGRLKQPGRREVFVAIKTLKVGYTERQRRDFLSEASIMGQFDHPNIIRLEGVVTKSRPVMILTEFMENCALDSFLRLNDGQFTVIQLVGMLRGIAAGMKYLSEMNYVHRDLAARNILVNSNLVCKVSDFGLSRFLEDDPSDPTYTSSLGGKIPIRWTAPEAIAYRKFTSASDVWSYGIVMWEVMSYGERPYWDMSNQDVINAVEQDYRLPPPMDCPTALHQLMLDCWVRDRNLRPKFSQIVNTLDKLIRNAASLKVIASAQSGMSQPLLDRTVPDYTTFTTVGDWLDAIKMGRYKESFVSAGFASFDLVAQMTAEDLLRIGVTLAGHQKKILSSIQDMRLQMNQTLPVQV
modifications: left off: a dimerising Fc or GST
B4: EPHB4 (protein)
chain: LCLRKQSNGREAEYSDKHGQYLIGHGTKVYIDPFTYEDPNEAVREFAKEIDVSYVKIEEVIGAGEFGEVCRGRLKAPGKKESCVAIKTLKGGYTERQRREFLSEASIMGQFEHPNIIRLEGVVTNSMPVMILTEFMENGALDSFLRLNDGQFTVIQLVGMLRGIASGMRYLAEMSYVHRDLAARNILVNSNLVCKVSDFGLSRFLEENSSDPTYTSSLGGKIPIRWTAPEAIAFRKFTSASDAWSYGIVMWEVMSFGERPYWDMSNQDVINAIEQDYRLPPPPDCPTSLHQLMLDCWQKDRNARPRFPQVVSALDKMIRNPASLKIVARENGGASHPLLDQRQPHYSAFGSVGEWLRAIKMGRYEESFAAAGFGSFELVSQISAEDLLRIGVTLAGHQKKILASVQHMKSQAKPGTPGGTGGPAPQY
modifications: left off: small tags and cut ends
B5: RPS6KA1(RSK1) (protein)
chain: MPLAQLKEPWPLMELVPLDPENGQTSGEEAGLQPSKDEGVLKEISITHHVKAGSEKADPSHFELLKVLGQGSFGKVFLVRKVTRPDSGHLYAMKVLKKATLKVRDRVRTKMERDILADVNHPFVVKLHYAFQTEGKLYLILDFLRGGDLFTRLSKEVMFTEEDVKFYLAELALGLDHLHSLGIIYRDLKPENILLDEEGHIKLTDFGLSKEAIDHEKKAYSFCGTVEYMAPEVVNRQGHSHSADWWSYGVLMFEMLTGSLPFQGKDRKETMTLILKAKLGMPQFLSTEAQSLLRALFKRNPANRLGSGPDGAEEIKRHVFYSTIDWNKLYRREIKPPFKPAVAQPDDTFYFDTEFTSRTPKDSPGIPPSAGAHQLFRGFSFVATGLMEDDGKPRAPQAPLHSVVQQLHGKNLVFSDGYVVKETIGVGSYSECKRCVHKATNMEYAVKVIDKSKRDPSEEIEILLRYGQHPNIITLKDVYDDGKHVYLVTELMRGGELLDKILRQKFFSEREASFVLHTIGKTVEYLHSQGVVHRDLKPSNILYVDESGNPECLRICDFGFAKQLRAENGLLMTPCYTANFVAPEVLKRQGYDEGCDIWSLGILLYTMLAGYTPFANGPSDTPEEILTRIGSGKFTLSGGNWNTVSETAKDLVSKMLHVDPHQRLTAKQVLQHPWVTQKDKLPQSQLSHQDLQLVKGAMAATYSALNSSKPTPQLKPIESSILAQRRVRKLPSTTL
modifications: left off: small tags and cut ends
B6: RPS6KB2(p70S6K2) (protein)
chain: MAAVFDLDLETEEGSEGEGEPELSPADACPLAELRAAGLEPVGHYEEVELTETSVNVGPERIGPHCFELLRVLGKGGYGKVFQVRKVQGTNLGKIYAMKVLRKAKIVRNAKDTAHTRAERNILESVKHPFIVELAYAFQTGGKLYLILECLSGGELFTHLEREGIFLEDTACFYLAEITLALGHLHSQGIIYRDLKPENIMLSSQGHIKLTDFGLCKESIHEGAVTHTFCGTIEYMAPEILVRSGHNRAVDWWSLGALMYDMLTGSPPFTAENRKKTMDKIIRGKLALPPYLTPDARDLVKKFLKRNPSQRIGGGPGDAADVQRHPFFRHMNWDDLLAWRVDPPFRPCLQSEEDVSQFDTRFTRQTPVDSPDDTALSESANQAFLGFTYVAPSVLDSIKEGFSFQPKLRSPRRLNSSPRAPVSPLKFSPFEGFRPSPSLPEPTELPLPPLLPPPPPSTTAPLPIRPPSGTKKSKRGRGRPGR
modifications: left off: a dimerising Fc or GST
B7: RPS6KB1(p70S6K) (protein)
chain: MRRRRRRDGFYPAPDFRDREAEDMAGVFDIDLDQPEDAGSEDELEEGGQLNESMDHGGVGPYELGMEHCEKFEISETSVNRGPEKIRPECFELLRVLGKGGYGKVFQVRKVTGANTGKIFAMKVLKKAMIVRNAKDTAHTKAERNILEEVKHPFIVDLIYAFQTGGKLYLILEYLSGGELFMQLEREGIFMEDTACFYLAEISMALGHLHQKGIIYRDLKPENIMLNHQGHVKLTDFGLCKESIHDGTVTHTFCGTIEYMAPEILMRSGHNRAVDWWSLGALMYDMLTGAPPFTGENRKKTIDKILKCKLNLPPYLTQEARDLLKKLLKRNAASRLGAGPGDAGEVQAHPFFRHINWEELLARKVEPPFKPLLQSEEDVSQFDSKFTRQTPVDSPDDSTLSESANQVFLGFEYVAPSVLES
modifications: left off: a dimerising Fc or GST
B8: RPS6KA2(RSK3) (protein)
chain: MDLSMKKFAVRRFFSVYLRRKSRSKSSSLSRLEEEGVVKEIDISHHVKEGFEKADPSQFELLKVLGQGSYGKVFLVRKVKGSDAGQLYAMKVLKKATLKVRDRVRSKMERDILAEVNHPFIVKLHYAFQTEGKLYLILDFLRGGDLFTRLSKEVMFTEEDVKFYLAELALALDHLHSLGIIYRDLKPENILLDEEGHIKITDFGLSKEAIDHDKRAYSFCGTIEYMAPEVVNRRGHTQSADWWSFGVLMFEMLTGSLPFQGKDRKETMALILKAKLGMPQFLSGEAQSLLRALFKRNPCNRLGAGIDGVEEIKRHPFFVTIDWNTLYRKEIKPPFKPAVGRPEDTFHFDPEFTARTPTDSPGVPPSANAHHLFRGFSFVASSLIQEPSQQDLHKVPVHPIVQQLHGNNIHFTDGYEIKEDIGVGSYSVCKRCVHKATDTEYAVKIIDKSKRDPSEEIEILLRYGQHPNIITLKDVYDDGKFVYLVMELMRGGELLDRILRQRYFSEREASDVLCTITKTMDYLHSQGVVHRDLKPSNILYRDESGSPESIRVCDFGFAKQLRAGNGLLMTPCYTANFVAPEVLKRQGYDAACDIWSLGILLYTMLAGFTPFANGPDDTPEEILARIGSGKYALSGGNWDSISDAAKDVVSKMLHVDPHQRLTAMQVLKHPWVVNREYLSPNQLSRQDVHLVKGAMAATYFALNRTPQAPRLEPVLSSNLAQRRGMKRLTSTRL
modifications: left off: small tags and cut ends
B9: ROCK1 (protein)
chain: MSTGDSFETRFEKMDNLLRDPKSEVNSDCLLDGLDALVYDLDFPALRKNKNIDNFLSRYKDTINKIRDLRMKAEDYEVVKVIGRGAFGEVQLVRHKSTRKVYAMKLLSKFEMIKRSDSAFFWEERDIMAFANSPWVVQLFYAFQDDRYLYMVMEYMPGGDLVNLMSNYDVPEKWARFYTAEVVLALDAIHSMGFIHRDVKPDNMLLDKSGHLKLADFGTCMKMNKEGMVRCDTAVGTPDYISPEVLKSQGGDGYYGRECDWWSVGVFLYEMLVGDTPFYADSLVGTYSKIMNHKNSLTFPDDNDISKEAKNLICAFLTDREVRLGRNGVEEIKRHLFFKNDQWAWETLRDTVAPVVPDLSSDIDTSNFDDLEEDKGEEETFPIPKAFVGNQLPFVGFTYYSNRRYLSSANPNDNRTSSNADKSLQESLQKTIYKLEEQLHNEMQLKDEMEQKCRTSNIKLDKIMKELDEEGNQRRNLESTVSQIEKEKMLLQHRINEYQRKAEQENEKRRNVENEVSTLKDQLEDLKKVSQNSQL
modifications: left off: a dimerising Fc or GST

Tested on: kinases of Table 6 on Myelin Basic Protein (MBP)
Assay: Kinase assay using MBP substrate, ProQ Diamond stain (Table 6)
Assay type: biochemical
Details: kinase printed on MBP-coated slide; 20 uM ATP, 30° C.; ProQ Diamond Microarray Stain; graded Strong/Weak/Negative
Summary of the method: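 Reactions ran at 30° C. with 20 uM ATP, 4 mM MgCl2 and 5% DMSO in HEPES pH 7.5, inhibitor added or omitted. Kinases had been arrayed onto slide-bound dephosphorylated bovine MBP; phospho-signal read after ProQ Diamond staining.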

Row | Molecule | MBP Kinase Activity
1 | B1 | Strong
2 | B2 | Weak
3 | B3 | Strong
4 | B4 | Strong
5 | B5 | Strong
6 | B6 | Negative
7 | B7 | Negative
8 | B8 | Negative
9 | B9 | Strong
